Measurements: patent publication EP4799645A2 (GAN & LEE PHARMACEUTICALS CO., LTD., dated 2026)
Numbered stars: 1 amine (or outer) side, 2 acyl side, 3 side chain; on linkers, the order of the positions; unused ones are H or OH. Side chains are listed from the residue outwards. Ends that are not written are not given here. * marks the point of attachment. C22 diacid = O=C(O)CCCCCCCCCCCCCCCCCCCCC(=O)*; γGlu = O=C(O)[C@H](CCC(=O)[*:2])N[*:1]; AEEA = NCCOCCOCC(=O)O

Biological target: albumin (HSA) (human, UniProt P02768 25-609)
Sequence (P02768 25-609 limits assumed): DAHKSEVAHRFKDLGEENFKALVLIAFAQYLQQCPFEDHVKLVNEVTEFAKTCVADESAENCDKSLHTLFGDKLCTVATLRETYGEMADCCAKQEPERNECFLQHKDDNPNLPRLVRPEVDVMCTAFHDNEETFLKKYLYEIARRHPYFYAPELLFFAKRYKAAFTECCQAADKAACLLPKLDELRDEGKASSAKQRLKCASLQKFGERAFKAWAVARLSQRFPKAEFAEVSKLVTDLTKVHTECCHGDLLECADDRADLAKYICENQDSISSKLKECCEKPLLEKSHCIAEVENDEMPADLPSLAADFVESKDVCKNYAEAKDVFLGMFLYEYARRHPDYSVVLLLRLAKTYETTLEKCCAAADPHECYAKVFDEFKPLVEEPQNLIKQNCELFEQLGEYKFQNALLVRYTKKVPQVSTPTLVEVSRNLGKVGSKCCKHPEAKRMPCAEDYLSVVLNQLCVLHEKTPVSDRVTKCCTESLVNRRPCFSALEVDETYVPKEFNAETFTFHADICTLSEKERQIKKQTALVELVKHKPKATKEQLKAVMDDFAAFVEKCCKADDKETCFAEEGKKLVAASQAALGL
Experiment: shift of receptor-binding IC50 between 0.005% and 2% HSA (indirect)

HGEGTFTSDVSSYLEGQAAK([AEEA-AEEA-γGlu-C22 diacid])EFIAWLVRGRG (also called Compound 10)
binding result: binds
